This note sets out measurements from patent US20180214548A1 (SHANGHAI YUNYI HEALTHCARE AND TECHNOLOGY, published 2018).

In test [1] the target is T1, human PD-1^ECD-hFc protein (Immunogen A) (human, UniProt Q15116 25-167).
T1 construct: Biotinylated for the Octet assay; also called PD-1-hFc; hPD-1^ECD-hFc; not shown: human IgG Fc fragment (hFc)
As to the kind of experiment: ELISA, coated human PD-1ECD-hFc; antibody 10 nM. The protocol:
(§1) 100 uL of the diluted recombinant proteins were added to each well of 96-well plate. The plates were sealed with plastic film and incubated at 4° C. overnight. The plates were washed twice with wash buffer (PBS+0.01% (v/v) Tween20), and incubated with blocking buffer (PBS+0.01% (v/v) Tween20+1% (w/w) BSA) at room temperature for 2 hours. The blocking buffer was aspirated away, and 100 uL of purified anti-PD-1 antibodies were added to each well and incubated for 2 hours at 37° C. The plates were washed three times with wash buffer (PBS+0.01% (v/v) Tween20). HRP-conjugated secondary antibody (Sigma) was added to each well and incubated for 2 hours at 37° C. After the plates were washed three times with wash buffer, 100 uL TMB substrate was added to each well and incubated for 30 minutes at room temperature. 100 uL stop solution (0.1N HCl) was added to each well to stop the reaction. The absorbance at 450 nm was measured with an ELISA plate reader (384plus SpectraMax, Molecular Devices).

The target in test [2] is T2, cyno PD-1^ECD-hFc protein (cyno monkey, UniProt B0LAJ3 25-167).
T2 construct: Prepared by the method for Immunogen A; also called Cyno Monkey PD-1^ECD-hFc; cyno monkey PD-1-hFc; not shown: human IgG Fc fragment (hFc) and its junction to the ECD
T2 sequence (B0LAJ3 entry or part of it limits assumed): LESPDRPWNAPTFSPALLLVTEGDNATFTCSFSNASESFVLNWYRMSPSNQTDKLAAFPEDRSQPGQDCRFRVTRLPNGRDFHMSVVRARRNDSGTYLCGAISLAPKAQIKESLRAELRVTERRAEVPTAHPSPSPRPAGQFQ
As to the kind of experiment: ELISA, coated cyno PD-1ECD-hFc; antibody 1 nM. The protocol:
as §1

Test [3] has as its target T2, cyno PD-1^ECD-hFc protein. As to the kind of experiment: ELISA, coated cyno PD-1ECD-hFc; antibody 100 nM. The protocol:
as §1

Test [4] deals with T1, human PD-1^ECD-hFc protein (Immunogen A). As to the kind of experiment: protein-based receptor-ligand blocking ELISA: coated PD-1ECD-hFc, blocked ligand biotinylated PD-L1ECD, streptavidin-HRP. The protocol: (§2) Purified PD-1^ECD-hFc (Example 2) was diluted with PBS to a final concentration of 1.0 ug/mL, and 100 uL diluted PD-1^ECD-hFc were added to each well of a 96-well plate that was then sealed with plastic film and incubated at 4° C. overnight. The plate was washed twice with wash buffer (PBS+0.01% (v/v) Tween 20) and incubated with blocking buffer (PBS+[…]) at room temperature for 2 hours. The blocking buffer was aspirated, and 50 uL purified anti-PD-1 antibodies from Example 2 were added to each well of 96-well plate. […] The plate was washed three times with wash buffer (PBS+0.01% (v/v) Tween 20). 100 uL HRP-conjugated streptavidin (Sigma) were then added to each well and incubated at 37° C. for 2 hours. The plate was then washed three times with wash buffer, and 100 uL TMB substrate were added to each well. After 30 minutes of incubation at room temperature, the reaction was stopped by adding 100 uL stop solution (0.1N HCl). The absorbance at OD450 nm was measured with an ELISA plate reader (384plus SpectraMax, Molecular Devices).

Test [5] shares this target. As to the kind of experiment: protein-based receptor-ligand blocking ELISA: coated PD-1ECD-hFc, blocked ligand biotinylated PD-L2ECD, streptavidin-HRP. The protocol: as §2
The target is the same in test [6]. Put plainly: ELISA, coated human PD-1ECD-hFc; antibody 0.01 nM. The protocol: as §1
The target of the next test is T3, CTLA4 (human, UniProt P16410 37-162, limits assumed).
T3 sequence (looked up): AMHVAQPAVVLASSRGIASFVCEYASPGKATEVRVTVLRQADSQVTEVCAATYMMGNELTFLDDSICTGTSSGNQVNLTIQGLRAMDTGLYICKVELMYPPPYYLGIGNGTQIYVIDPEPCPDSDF
Put plainly: ELISA, coated protein 1 ug/mL; antibody concentration not stated. The protocol:
as §1

Test [7] addresses T1, human PD-1^ECD-hFc protein (Immunogen A). Described as above. The protocol: as §1
The target of the next test is T4, B7-1 (human, UniProt P33681 35-242).
T4 sequence (looked up): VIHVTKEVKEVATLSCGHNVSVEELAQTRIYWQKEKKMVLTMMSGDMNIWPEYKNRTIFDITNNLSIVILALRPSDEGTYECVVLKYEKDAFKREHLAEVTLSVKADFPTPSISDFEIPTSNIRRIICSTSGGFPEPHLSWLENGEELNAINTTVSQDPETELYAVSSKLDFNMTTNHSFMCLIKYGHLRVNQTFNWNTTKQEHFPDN
The test is described as above. The protocol:
as §1

For a further test, the target named is T5, ICOS (human, UniProt Q9Y6W8 21-140, limits assumed).
T5 sequence (looked up): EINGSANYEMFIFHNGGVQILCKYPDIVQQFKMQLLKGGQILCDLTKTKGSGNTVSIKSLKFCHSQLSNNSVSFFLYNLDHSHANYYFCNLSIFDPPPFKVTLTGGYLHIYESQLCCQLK
Described as above. The protocol:
as §1

For the next test, the target named is CD28 (human, UniProt P10747 19-152). The description is as above. The protocol:
as §1

In test [8] the target is T1, human PD-1^ECD-hFc protein (Immunogen A). As to the kind of experiment: ELISA, coated human PD-1ECD-hFc; antibody 0.1 nM. The protocol:
as §1

T1 sequence (Q15116 25-167): as the sequence (B0LAJ3 entry or part of it limits assumed) above, with E2D, A10P, L19V, A35T, R75Q counted along it
CD28, sequence (P10747 19-152 limits assumed): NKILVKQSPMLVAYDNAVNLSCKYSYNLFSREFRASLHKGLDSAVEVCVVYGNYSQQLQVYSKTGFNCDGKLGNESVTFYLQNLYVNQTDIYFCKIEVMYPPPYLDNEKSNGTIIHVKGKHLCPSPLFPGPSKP

B1: chimeric anti-PD-1 antibody 76G5B3 (antibody, V domains shown)
VH: QVQLVESGGGVVQPGRSLRLSCAASGFTFSDYGFHWVRQAPGKGLEWVAVIWYDGSNEYYTDSVKGRFTISRDNSKNTLYLQMNSLRAEDTAMYFCVVNPFDYWGQGTLVTVSS
VL: DIQMTQSPSSLSAFVGDRVTITCRASQGINHYLAWYQQKPGKAPNLLILAASTLLSGVPSRFGGRGSGTDFTLIISSLQPEDVATYYCQKYDSAPYTFGQGTKLEIK
notes: Purified from hybridoma of Harbour H2L2 mice: human variable regions, rat constant regions
Turning to B1, the OD450 nm in test [1] was determined as 3.12; in test [2], 1.4; in [3] it was 1.89; in test [6] it was 0.65; with CTLA4, 0.135; in [7], 2.76. Also, the OD450 nm in the test with B7-1 is 0.271; with ICOS, 0.173; with CD28, 0.061; in test [8] it was 2.43. Further, the “IC50 (read off the curve)” value in test [4] was approximately 0.9 nM; in test [5] it was approximately 1 nM.

B2: chimeric anti-PD-1 antibody 21G8F11 (antibody, V domains shown)
VH: EVQLLESGGGLAQPGGSLRLSCAASGFSFNTYLMHWVRQAPGKGLEWVSAISGGGGNTYYADSVKGRFTISRDNSKNTLYLQMNSLRAEDTAVYYCAKENRIPVAPFDYWGQGTLVTVSS
VL: DIQMTQSPSTLSASVGDRVTITCRASQSISTWLAWYQQKPGKAPKLLIYKASSLESGVPSRFSGSGSGTEFTLTISSLQPDDLATYYCQQYNSFSWTFGQGTKVEIK
notes: as for B1
In the case of B2, the OD450 nm is 2.87 in [1]; 2.45 in test [2]; 2.61 in test [3]; 0.669 in test [6]; 0.091 in the test with CTLA4; 2.25 in [7]. Also, the OD450 nm in the test with B7-1 was 0.154; in the test with ICOS, 0.128; with CD28, 0.144; in test [8], 1.77. Besides, the “IC50 (read off the curve)” value in test [4] was approximately 0.4 µg/mL; in test [5] it was approximately 0.6 µg/mL.

B3: chimeric anti-PD-1 antibody 32B5C7 (antibody, V domains shown)
VH: EVQLLESGGGLVQPGGSLRLSCAASGFTFSSYAMSWVRQAPGKGLEWVSTISGSGGTTYYADSVKGRFTISRDNSKNTLYLQMNSLRAEDTAVYYCTLTGDPDYWGQGTLVTVSS
VL: EIVLTQSPATLSLSPGERATLSCRASQSVSSYLAWYQQKPGQAPRLLIYDASKRATGIPARFSGSGSGTDFTLTISSLEPEDFAVYYCQQRNNWPLTFGGGTKVEIK
notes: as for B1
For B3, the OD450 nm in [1] was found to be 3.14; in [2], 1.03; in test [3], 1.66; in test [6] it was 0.55; in the test with CTLA4, 0.172; in test [7], 2.69. Also, the OD450 nm with B7-1 came out at 0.36; with ICOS it was 0.483; with CD28, 0.062; in test [8], 2.11. For the same molecule, the “IC50 (read off the curve)” value was approximately 1 nM in [4] and approximately 2 nM in [5].
